Patent publication US20020192704A1

Target: IRR-Fc fusion protein (extracellular region of mouse insulin receptor-related receptor, 1-920th residues, fused to the H-chain C (constant) region (Fc region) of human IgG1) (mouse; human) (UniProt Q9WTL4)
Assay: SPR (BIACORE 2000), IRR-Fc immobilised on a CM5 chip, IR-Fc flow cell subtracted; about 10 ug of specimen in 200 ul of buffer

Sequence of IRR-Fc fusion protein (extracellular region of mouse insulin receptor-related receptor, 1-920th residues, fused to the H-chain C (constant) region (Fc region) of human IgG1) (mouse; human) (Q9WTL4 27-920 limits assumed, form in doubt): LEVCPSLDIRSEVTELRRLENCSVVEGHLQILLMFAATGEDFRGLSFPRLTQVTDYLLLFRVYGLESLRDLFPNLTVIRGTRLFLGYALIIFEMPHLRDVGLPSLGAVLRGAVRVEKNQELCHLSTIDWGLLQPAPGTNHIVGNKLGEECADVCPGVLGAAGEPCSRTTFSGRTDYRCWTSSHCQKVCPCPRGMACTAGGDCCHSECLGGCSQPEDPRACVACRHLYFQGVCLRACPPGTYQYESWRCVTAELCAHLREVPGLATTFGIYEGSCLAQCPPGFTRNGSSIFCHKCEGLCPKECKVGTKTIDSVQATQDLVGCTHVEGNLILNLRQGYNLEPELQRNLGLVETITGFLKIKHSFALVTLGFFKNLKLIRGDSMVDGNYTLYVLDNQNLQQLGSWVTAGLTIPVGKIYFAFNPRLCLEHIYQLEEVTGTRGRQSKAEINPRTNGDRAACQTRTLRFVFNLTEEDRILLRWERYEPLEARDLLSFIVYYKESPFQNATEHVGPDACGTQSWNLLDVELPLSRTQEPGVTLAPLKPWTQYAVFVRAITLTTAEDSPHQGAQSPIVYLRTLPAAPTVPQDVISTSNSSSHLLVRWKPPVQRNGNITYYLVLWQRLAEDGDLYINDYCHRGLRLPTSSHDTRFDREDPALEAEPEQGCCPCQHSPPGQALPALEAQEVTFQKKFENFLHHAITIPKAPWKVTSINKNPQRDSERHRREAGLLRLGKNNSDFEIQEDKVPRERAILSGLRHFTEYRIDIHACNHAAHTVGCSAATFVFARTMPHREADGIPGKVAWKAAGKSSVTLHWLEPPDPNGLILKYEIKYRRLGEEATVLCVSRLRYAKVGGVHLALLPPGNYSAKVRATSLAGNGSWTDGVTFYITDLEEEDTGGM

| binding activity (RU; IRR-Fc binding value minus IR-Fc binding value) [RU] | Substance |
| --- | --- |
| 13 | Peak 1 of the re-purified IRR ligand from rat C6 glioma cell culture supernatant (rat epithelin/granulin precursor fragments, SEQ ID NOS: 5 and 6) (from UniProt P23785 438-494) |
| 21 | Peak 2 of the re-purified IRR ligand from rat C6 glioma cell culture supernatant (rat epithelin/granulin precursor fragment, SEQ ID NO: 4) (from UniProt P23785 439-494) |
